Measured values as given in the supplement of paper PMC5998384.

Tests used:
[1] = tested on: HeLa Kyoto; assay: thermal stability score vs G1/S (z-score of summed log2 fold changes over temperatures); higher = more thermally stable than in G1/S
[2] = tested on: HeLa Kyoto; assay: melting temperature (median over replicates), in situ; higher = more thermally stable
[3] = cell cycle stage: early G1 (4.5 h after nocodazole release)
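Wherever melting temperature (median over replicates), in situ is given: HeLa Kyoto cells synchronized by double thymidine or nocodazole block, proteins quantified by TMT10plex mass spectrometry, three independent biological replicates.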
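Wherever thermal stability score vs G1/S (z-score of summed log2 fold changes over temperatures) is given: synchronized HeLa Kyoto cells, proteins quantified by TMT10plex mass spectrometry, three biological replicates, mitosis taken 0.5 h after nocodazole release, G1/S directly after double thymidine block.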

| Substance | thermal stability score [1, 3] | thermal stability score ([1]; cell cycle stage: mitosis) | melting temperature ([2]; cell cycle stage: G1/S) | melting temperature ([2]; cell cycle stage: mitosis) |
| --- | --- | --- | --- | --- |
| HRNR | 5.84 | 1.12 | – | – |
| KIAA0100 | 1.31 | 1.36 | – | – |
| MAAAVAAALARLLAAFLLLAAQVACEYGMVHVVSQAGGPEGKDYCILYNPQWAHLPHDLSKASFLQLRNWTASLLCSAADLPARGFSNQIPLVARGNCTFYEKVRLAQGSGARGLLIVSRERLVPPGGNKTQYDEIGIPVALLSYKDMLDIFTRFGRTVRAALYAPKEPVLDYNMVIIFIMAVGTVAIGGYWAGSRDVKKRYMKHKRDDGPEKQEDEAVDVTPVMTCVFVVMCCSMLVLLYYFYDLLVYVVIGIFCLASATGLYSCLAPCVRRLPFGKCRIPNNSLPYFHKRPQARMLLLALFCVAVSVVWGVFRNEDQWAWVLQDALGIAFCLYMLKTIRLPTFKACTLLLLVLFLYDIFFVFITPFLTKSGSSIMVEVATGPSDSATREKLPMVLKVPRLNSSPLALCDRPFSLLGFGDILVPGLLVAYCHRFDIQVQSSRVYFVACTIAYGVGLLVTFVALALMQRGQPALLYLVPCTLVTSCAVALWRRELGVFWTGSGFAKVLPPSPWAPAPADGPQPPKDSATPLSPQPPSEEPATSPWPAEQSPKSRTSEEMGAGAPMREPGSPAESEGRDQAQPSPVTQPGASA [SPPL2B] | 0.962 | -2.37 | – | – |
| MAAQGEPGYLAAQSDPGSNSERSTDSPVPGSEDDLVAGATLHSPEWSEERFRVDRKKLEAMLQAAAEGKGRSGEDFFQKIMEETNTQIAWPSKLKIGAKSKKDPHIKVSGKKEDVKEAKEMIMSVLDTKSNRVTLKMDVSHTEHSHVIGKGGNNIKKVMEETGCHIHFPDSNRNNQAEKSNQVSIAGQPAGVESARVRIRELLPLVLMFELPIAGILQPVPDPNSPSIQHISQTYNISVSFKQRSRMYGATVIVRGSQNNTSAVKEGTAMLLEHLAGSLASAIPVSTQLDIAAQHHLFMMGRNGSNIKHIMQRTGAQIHFPDPSNPQKKSTVYLQGTIESVCLARQYLMGCLPLVLMFDMKEEIEVDPQFIAQLMEQLDVFISIKPKPKQPSKSVIVKSVERNALNMYEARKCLLGLESSGVTIATSPSPASCPAGLACPSLDILASAGLGLTGLGLLGPTTLSLNTSTTPNSLLNALNSSVSPLQSPSSGTPSPTLWAPPLANTSSATGFSAIPHLMIPSTAQATLTNILLSGVPTYGHTAPSPPPGLTPVDVHINSMQTEGKKISAALNGHAQSPDIKYGAISTSSLGEKVLSANHGDPSIQTSGSEQTSPKSSPTEGCNDAFVEVGMPRSPSHSGNAGDLKQMMCPSKVSCAKRQTVELLQGTKNSHLHSTDRLLSDPELSATESPLADKKAPGSERAAERAAAAQQNSERAHLAPRSSYVNMQAFDYEQKKLLATKAMLKKPVVTEVRTPTNTWSGLGFSKSMPAETIKELRRANHVSYKPTMTTTYEGSSMSLSRSNSREHLGGGSESDNWRDRNGIGPGSHSEFAASIGSPKRKQNKSTEHYLSSSNYMDCISSLTGSNGCNLNSSFKGSDLPELFSKLGLGKYTDVFQQQEIDLQTFLTLTDQDLKELGITTFGARRKMLLAISELNKNRRKLFESPNARTSFLEGGASGRLPRQYHSDIASVSGRW [BICC1] | -0.0285 | 0.296 | – | – |
| MALCEAAGCGSALLWPRLLLFGDSITQFSFQQGGWGASLADRLVRKCDVLNRGFSGYNTRWAKIILPRLIRKGNSLDIPVAVTIFFGANDSALKDENPKQHIPLEEYAANLKSMVQYLKSVDIPENRVILITPTPLCETAWEEQCIIQGCKLNRLNSVVGEYANACLQVAQDCGTDVLDLWTLMQDSQDFSSYLSDGLHLSPKGNEFLFSHLWPLIEKKVSSLPLLLPYWRDVAEAKPELSLLGDGDH [IAH1] | 0.993 | -0.17 | – | – |
| MQSREDAPRSRRLASPRGGKRPKKIHKPTVSAFFTGPEELKDTAHSAALLAQLKSFYDARLLCDVTIEVVTPGSGPGTGRLFPCNRNVLAAACPYFKSMFTGGMYESQQASVTMHDVDAESFEVLVDYCYTGRVSLSEANVERLYAASDMLQLEYVREACASFLARRLDLTNCTAILKFADAFGHRKLRSQAQSYIAQNFKQLSHMGSIREETLADLTLAQLLAVLRLDSLDVESEQTVCHVAVQWLEAAPKERGPSAAEVFKCVRWMHFTEEDQDYLEGLLTKPIVKKYCLDVIEGALQMRYGDLLYKSLVPVPNSSSSSSSSNSLVSAAENPPQRLGMCAKEMVIFFGHPRDPFLCCDPYSGDLYKVPSPLTCLAHTRTVTTLAVCISPDHDIYLAAQPRTDLWVYKPAQNSWQQLADRLLCREGMDVAYLNGYIYILGGRDPITGVKLKEVECYNVKRNQWALVAPLPHSFLSFDLMVIRDYLYALNSKRMFCYDPSHNMWLKCVSLKRNDFQEACVFNEEIYCICDIPVMKVYNPVRAEWRQMNNIPLVSETNNYRIIKHGQKLLLITSRTPQWKKNRVTVYEYDIRGDQWINIGTTLGLLQFDSNFFCLSARVYPSCLEPGQSFLTEEEEIPSESSTEWDLGGFSEPDSESGSSSSLSDDDFWVRVAPQ [KBTBD6] | – | – | 50.6 °C | 51.1 °C |
| MSAARESHPHGVKRSASPDDDLGSSNWEAADLGNEERKQKFLRLMGAGKKEHTGRLVIGDHKSTSHFRTGEEDKKINEELESQYQQSMDSKLSGRYRRHCGLGFSEVEDHDGEGDVAGDDDDDDDDSPDPESPDDSESDSESEKEESAEELQAAEHPDEVEDPKNKKDAKSNYKMMFVKSSGS [C11ORF58] | – | – | 55 °C | – |
| MSKAHPPELKKFTDKKFSLKLNGGRHVQGILRGFDPFMNLVIDECVEMATSGQQKNIGMVEIRGNSIIMLEALERV [SNRPGP15] | – | – | 53.6 °C | 54 °C |
| MSSSSSSPRETYEEDREYESQAKRLKTEEGEIDYSAEEGENRREATPRGGGDGGGGGRSFSQPEAGGSHHKVSVSPVVHVRGLCESVVEADLVEALEKFGTICYVMMMPFKRQALVEFENIDSAKECVTFAADEPVYIAGQQAFFNYSTSKRITRPGNTDDPSGGNKVLLLSIQNPLYPITVDVLYTVCNPVGKVQRIVIFKRNGIQAMVEFESVLCAQKAKAALNGADIYAGCCTLKIEYARPTRLNVIRNDNDSWDYTKPYLGRRDRGKGRQRQAILGEHPSSFRHDGYGSHGPLLPLPSRYRMGSRDTPELVAYPLPQASSSYMHGGNPSGSVVMVSGLHQLKMNCSRVFNLFCLYGNIEKVKFMKTIPGTALVEMGDEYAVERAVTHLNNVKLFGKRLNVCVSKQHSVVPSQIFELEDGTSSYKDFAMSKNNRFTSAGQASKNIIQPPSCVLHYYNVPLCVTEETFTKLCNDHEVLTFIKYKVFDAKPSAKTLSGLLEWECKTDAVEALTALNHYQIRVPNGSNPYTLKLCFSTSSHL [HNRNPLL] | – | – | 47.6 °C | 49.7 °C |
| MTQSVVVQVGQCGNQIGCCFWDLALREHAAVNQKGIYDEAISSFFRNVDTRVVGDGGSISKGKICSLKARAVLIDMEEGVVNEILQGPLRDVFDTKQLITDISGSGNNWAVGHKVFGSLYQDQILEKFRKSAEHCDCLQCFFIIHSMGGGTGSGLGTFLLKVLEDEFPEVYRFVTSIYPSGEDDVITSPYNSILAMKELNEHADCVLPIDNQSLFDIISKIDLMVNSGKLGTTVKPKSLVTSSSGALKKQHKKPFDAMNNIVANLLLNLTSSARFEGSLNMDLNEISMNLVPFPQLHYLVSSLTPLYTLTDVNIPPRRLDQMFSDAFSKDHQLLRADPKHSLYLACALMVRGNVQISDLRRNIERLKPSLQFVSWNQEGWKTSLCSVPPVGHSHSLLALANNTCVKPTFMELKERFMRLYKKKAHLHHYLQVEGMEESCFTEAVSSLSALIQEYDQLDATKNMPVQDLPRLSIAM [TUBE1] | – | – | – | 55.1 °C |
| PLXNA2 | – | – | 54.1 °C | 54.4 °C |
